T1: Uba3/AppBP1 protein complex (Mus musculus, UniProt Q8C878)
T1 construct: Myc-tagged, full-length mouse Uba3; host or cells: cell-free: TNT Coupled Reticulocyte Lysate System, 35S-methionine labelled
T1 sequence (Q8C878 22-462 V120X/V142X/I148X/P243X limits assumed): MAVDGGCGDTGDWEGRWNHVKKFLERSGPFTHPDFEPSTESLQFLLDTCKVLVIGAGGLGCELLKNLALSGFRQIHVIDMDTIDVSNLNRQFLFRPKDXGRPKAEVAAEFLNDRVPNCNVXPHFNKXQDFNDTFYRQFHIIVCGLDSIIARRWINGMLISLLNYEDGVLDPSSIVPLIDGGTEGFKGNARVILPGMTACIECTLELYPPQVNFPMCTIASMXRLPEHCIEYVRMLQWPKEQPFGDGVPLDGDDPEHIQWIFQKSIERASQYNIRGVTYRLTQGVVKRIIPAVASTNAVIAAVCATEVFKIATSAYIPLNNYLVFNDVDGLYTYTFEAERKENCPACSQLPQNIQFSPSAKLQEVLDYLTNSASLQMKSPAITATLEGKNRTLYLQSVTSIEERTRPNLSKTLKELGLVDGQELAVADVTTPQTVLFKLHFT

T2: GST-SPATIAL(L) (Mus musculus, UniProt Q7TSD4)
T2 construct: made in house
T2 sequence (Q7TSD4 with tags, fused parts or gaps isoform Q7TSD4-6 limits assumed): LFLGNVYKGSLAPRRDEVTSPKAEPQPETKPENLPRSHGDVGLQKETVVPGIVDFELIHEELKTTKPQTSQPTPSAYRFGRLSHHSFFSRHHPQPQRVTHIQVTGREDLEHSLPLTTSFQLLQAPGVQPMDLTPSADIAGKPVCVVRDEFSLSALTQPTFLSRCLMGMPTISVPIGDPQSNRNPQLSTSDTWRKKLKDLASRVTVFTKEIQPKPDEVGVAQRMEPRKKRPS

B1: GST-SPATIAL: glutathione-S-transferase SPATIAL fusion protein (protein)
chain: T2 sequence (Q7TSD4 with tags, fused parts or gaps isoform Q7TSD4-6 limits assumed)
modifications: left off: a dimerising Fc or GST
notes: glutathione-S-transferase SPATIAL fusion protein
B2: Uba3: catalytic subunit of NEDD8 activating enzyme, a 441-amino acid protein (SEQ ID NO: 6) (protein, listed as Mus musculus)
chain: T1 sequence (Q8C878 22-462 V120X/V142X/I148X/P243X limits assumed)
modifications: (99)..(99) The ′Xaa′ at location 99 stands for Val.; (121)..(121) The ′Xaa′ at location 121 stands for Val.; (127)..(127) The ′Xaa′ at location 127 stands for Ile.; (222)..(222) The ′Xaa′ at location 222 stands for Pro.

Assays:
[1] = target: T1, Uba3/AppBP1 protein complex; assay: GST pulldown and immunoprecipitation, Uba3 and AppBP1 interaction; type: binding; conditions: FIG. 4
Description: To determine whether SPATIAL has an effect on the neddylation pathway, cDNAs for each of the components of the Nedd8 conjugation pathway were obtained from EST depositories (AppBP1, GenBank Accession No. BC00480; Uba3, GenBank Accession No. BC002002). These cDNAs were used to produce radiolabeled proteins by in vitro transcription and translation.
The effect of SPATIAL on the first step of the pathway, the interaction between Uba3 and AppBP1, was tested using a GST pulldown assay
In a typical GST pulldown assay, GST and GST-SPATIAL were prepared from transformed bacterial cultures as previously described (e.g., Ausubel et al., Current Protocols in Molecular Biology, Greene Publishing Associates, updated November 2003, Chapter 20, Analysis of Protein Interactions, Unit 20.2, Affinity Purification of Proteins Binding to GST Fusion Proteins). After purification, GST and GST-SPATIAL proteins were mixed with glutathione-sepharose beads and the mixtures were frozen in 200 μl aliquots. The amount of protein bound to the beads was quantitated using a colormetric assay (BCA assay; Pierce-Endogen).
Uba3 and AppBP1 were in vitro translated and ^35S-methionine labeled using 0.5 μg of the respective expression plasmids in a 50 μl reaction using TNT® Coupled Reticulocyte Lysate Systems (Promega) by following the manufacturer's instructions. […]

293T cells = assay: Uba3 co-transfection with SPATIAL-EGFP, growth arrest; type: cell-based, human; conditions: transient over expression, 0.5, 2.5 or 4.5 μg/well Uba3 plasmid, FIG. 9
Description: To determine whether Uba3 is involved in SPATIAL mediated growth suppression, co-transfections were done using increasing amounts of an Uba3 expression vector with constant amounts of SPATIAL-EGFP or EGFP.
4×10^5 293T cells were transfected in 6 well plates using 5 μg of a mixture of plasmids. The plasmids used were pEGFP-N1 (0.5 μg/well), pEGFP-SPATIAL(L) (0.5 μg/well), pcDNA3.1 Myc/his M Uba3 (0.5, 2.5 or 4.5 μg/well) (pcDNA3.1 myc/His may be obtained from Invitrogen), and pWL-neo (4 or 2 μg/well). The plasmid pWL-neo (Stratagene) was used as a control plasmid to make sure that the total DNA in each transfection totaled 5 μg. Transfections were done using Lipofectamine 2000 using manufacturers instructions (Invitrogen).
Twenty four hours after transfection, the cells were trypsinized and re-plated onto 10 cm dishes and cultured for up to 6 days. The number of EGFP-positive cells were determine at 24, 36 and 144 hours after transfection by harvesting the cells, counting and FACS analysis to determine the percentage of EGFP-positive cells.

GST-SPATIAL(L) = target: T2, GST-SPATIAL(L); assay: GST pulldown assay with GST-SPATIAL long isoform; type: binding; conditions: 35S-methionine labeled in vitro translated protein
Description: Eighteen cDNA clones identified in the yeast two-hybrid system were tested in an in vitro glutathione-S-transferase (GST) pulldown assay, as described in Ausubel et al., Current Protocols in Molecular Biology, Greene Publishing Associates, updated November 2003, Chapter 20, Analysis of Protein Interactions, Unit 20.2, Affinity Purification of Proteins Binding to GST Fusion Proteins.
Briefly, a GST-SPATIAL fusion construct was produced by cloning SPATIAL cDNA(s) into pGEx5X1 expression vector using standard molecular cloning techniques. GST or GST-SPATIAL fusion protein were expressed in 1-1000 ml bacterial cultures grown for 3-4 hours until OD600 reached 0.5. Then, plasmid expression was induced for 1.5-4 hours by the addition of ITPG to a final concentration of 0.11 mM. GST or GST-fusion proteins were purified using glutathione-Sepharose beads as described in Ausubel et al., Current Protocols in Molecular Biology, Greene Publishing Associates, updated November 2003, Chapter 20, Analysis of Protein Interactions, Unit 20.2, Affinity Purification of Proteins Binding to GST Fusion Proteins.
A coupled in vitro transcription and translation system (Promega) was used according to the manufacturer's instructions to produce radiolabeled protein from cDNAs to be tested. Radiolabeled proteins were mixed with either purified GST or GST-SPATIAL. Then, GST-containing protein complexes were purified by centrifugation from the reaction mixtures using glutathione-coated Sepharose beads. Bound proteins were eluted from the beads with SDS-PAGE loading buffer heated to 72-85° C., separated on polyacrylamide gels, and visualized by autoradiography. Specific interactions between GST-SPATIAL and in vitro translated proteins were indicated by the presence of a radiolabeled in vitro translated protein in the GST-SPATIAL-containing samples, but not in the GST-alone samples.
GST pulldown assays were performed as described in Example 9 using GST-SPATIAL(L) and GST-SPATIAL(S) and each of the Uba3 mutants described in this example.

Molecule	effect on Uba3 binding to AppBP1 [1]	effect on growth inhibition of SPATIAL-EGFP transfected cells (293T cells)	interaction with GST-SPATIAL(L) (GST-SPATIAL(L))
B1	interferes with Uba3 binding to AppBP1		
B2		overcomes the growth inhibition	specifically bound

From patent US20070248589A1 (GOVERNMENT OF THE UNITED STATES OF AMERICA AS REPRESENTED …, published 2007)
